This assay concerns the target T1, human cathepsin L (human).
T1 construct: cathepsin L, human, bought from Calbiochem; active enzyme used at 0.3 nM; source: bought: Calbiochem
As to the kind of experiment: enzyme inhibition assay (residual activity on the fluorogenic substrate Z-Phe-Arg-MCA); cathepsin B or L (0.3 nM) incubated 5 min at 37°C with varied inhibitor in 100 mM sodium acetate pH 5.5, 2.5 mM DTT; substrate 0.01 mM; triplicate; Ki(app) by non linear regression (GraFit), Ki by Morrison's procedure. Conditions: both partners purified.

B1: Oryzacystatin-1 N-terminal deletion (NΔ) (natural protein)
chain: MSSDGGPVGNENDLHLVDLARFAVTEHNKKANSLLEFEKLVSVKQQVVAGTLYYFTIEVKEGDAKKLYEAKVWEKPWMDFKELQEFKPVDASANA
B1 returned a Ki of 5.66 nM.

For the origin of these results see paper PMC2959088, “Molecular determinants of improved cathepsin B inhibition by new cystatins obtained by DNA shuffling” (BMC Structural Biology, 2010).
